Tests used:
4T1 cells = assay: Cell death/viability in cultures of 4T1 cells; assay type: cell-based, mouse
Experimental: (§1) Cell death/viability was determined by trypan blue dye exclusion, MTT cell viability assay, calcein assay, and anti-active caspase-3 immunoreactivity. In some experiments, cells were seeded in multiple 24-well plates (5×10^4 cells/well) for 24 h then transfected with different vectors using Lipofectamine Plus (Invitrogen): The different analysis occurred after 48 h (HEK-293T cells) or 72 h (4T1 cells) of serum starvation. In some experiments, cells were cultured in the presence of 10 μM caspase inhibitors: caspase-3 inhibitor II (Z-DEVD-FMK, 264155, VWR), caspase-8 inhibitor II (Z-IETD-FMK, 218759, VWR), and caspase-9 inhibitor II ([…], 218776, VWR).
(§2) For trypan blue exclusion experiments, total cells (adherent and floating) were collected by mechanical detachment and medium collection. Cells were pelleted by slow centrifugation and resuspended in serum-free medium. Trypan blue (0.4%) was added in a ratio of 1:1 to the cell suspension, and the percentage of cell death was measured in a hemacytometer by counting, in a blinded fashion and within a given volume, the number of blue (dead) cells and comparing this number to the total number of cells in this same volume.
(§3) For caspase staining, after immunostaining with anti-active caspase-3 antibody, the percentage of labelled cells was estimated by comparing the number of active caspase-3-stained cells with the total number of cells present on a given surface.
For assessing cell viability using calcein, cells were plated in OptiMEM medium in 96-well black plates (Greiner Bio-one, Courtaboeuf, France). After 3-6 days in culture, live cells were stained with 0.5 μg/ml green calcein-acetoxymethyl ester (Molecular Probes, Eugene, Oreg.) for 40 minutes at 37° C., and counted using a flash cytometer (Trophos, Marseille, France).
We next used an in vitro assay to evaluate whether SD1 is directly capable of triggering death of tumor cells. […] Similarly, 4T1-SD1 cells, which proliferate at the same rate as 4T1-mock cells during the first 24-48 h in culture, show increased death 72 h after plating, possibly as a result of SD1 accumulation in the culture medium (FIG. 14). […] Thus, SD1 triggers cancer cell death in a PlexinD1 dependent manner.

[1] = test system: HEK 293T cells transfected with hPlexinD1; assay: PlexinD1-induced cell death of transfected HEK 293T cells; assay type: cell-based, human; settings: for Effect of caspase inhibitor on the death effect of PlexinD1: 10 μM, trypan blue exclusion, cleaved Caspase-3 positive cells; for Effect of co-transfected semaphorin vector on PlexinD1-induced cell death: co-transfection with hPlexinD1
Experimental: FIGS. 28-29: HEK 293T cells transfected with an expression control vector or hPlexinD1 were cultured in absence or presence of different caspase inhibitors at 10 μM (caspase-3 (z-DEVD-fmk) and capspase-9 (z-LEHD-fmk), caspase-8 (z-IETD-fmk)). Cell death was measured by trypan blue exclusion-assay (28) or by quantification of the percentage of cleaved Caspase-3 positive cells (29). Activation of caspase-9 and caspase-3 is required for PlexinD1-mediated cell death.
FIG. 30: HEK 293T cells transfected with expression vectors for hPlexinD1, hPlexinD1-RA or a control vector were cultured in the absence or presence of different concentration of Sema3E (10 to 100 ng/ml).
FIG. 31: HEK 293T cells transfected with an expression vector for hPlexinD1 together with expression vector coding for Sema3E, Sema3C or a soluble form of Sema4A.
as §1, §2, §3

[2] = biological target: T1, in vitro translated intracellular domain of PlexinD1 (hPlexinD1 aa 1293 to 1925) (UniProt Q9Y4D7)
T1 sequence: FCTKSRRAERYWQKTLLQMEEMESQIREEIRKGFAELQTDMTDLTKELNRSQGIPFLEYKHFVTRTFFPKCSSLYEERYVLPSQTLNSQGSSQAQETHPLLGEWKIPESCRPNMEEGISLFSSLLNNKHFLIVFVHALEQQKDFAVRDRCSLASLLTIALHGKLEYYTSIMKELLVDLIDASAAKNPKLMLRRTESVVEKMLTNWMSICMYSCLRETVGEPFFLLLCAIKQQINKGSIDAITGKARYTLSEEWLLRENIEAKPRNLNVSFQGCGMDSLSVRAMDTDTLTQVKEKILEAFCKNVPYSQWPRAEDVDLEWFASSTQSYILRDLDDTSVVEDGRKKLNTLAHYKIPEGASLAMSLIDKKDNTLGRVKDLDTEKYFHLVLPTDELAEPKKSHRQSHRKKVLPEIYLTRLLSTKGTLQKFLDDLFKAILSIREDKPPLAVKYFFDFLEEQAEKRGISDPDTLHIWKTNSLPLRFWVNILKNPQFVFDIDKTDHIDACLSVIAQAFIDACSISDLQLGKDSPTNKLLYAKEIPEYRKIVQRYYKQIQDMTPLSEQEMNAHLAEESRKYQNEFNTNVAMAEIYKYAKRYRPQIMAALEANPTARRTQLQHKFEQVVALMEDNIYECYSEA

[3] = biological target: PlexinD1-IC D1471N/D1624N (UniProt Q9Y4D7)
[4] = biological target: T2, Sema3E (as printed in the displacement assay and as 'exogenous Sema3E' or Sema3E expression vector in the … (Mus musculus (Mouse), UniProt P70275 26-775)); assay: displacement of Sema3E binding to PlexinD1-expressing HEK293T cells by SD1 in conditioned medium (1-12 nM)
T2 construct: The methods describe production of mouse AP-Sema3E, which may be the one used in the displacement assay; also called Sema3E ligand; not shown: Alkaline phosphatase (AP) fusion partner, and a His tag if the AP-Sema3E-his construct was used
T2 sequence: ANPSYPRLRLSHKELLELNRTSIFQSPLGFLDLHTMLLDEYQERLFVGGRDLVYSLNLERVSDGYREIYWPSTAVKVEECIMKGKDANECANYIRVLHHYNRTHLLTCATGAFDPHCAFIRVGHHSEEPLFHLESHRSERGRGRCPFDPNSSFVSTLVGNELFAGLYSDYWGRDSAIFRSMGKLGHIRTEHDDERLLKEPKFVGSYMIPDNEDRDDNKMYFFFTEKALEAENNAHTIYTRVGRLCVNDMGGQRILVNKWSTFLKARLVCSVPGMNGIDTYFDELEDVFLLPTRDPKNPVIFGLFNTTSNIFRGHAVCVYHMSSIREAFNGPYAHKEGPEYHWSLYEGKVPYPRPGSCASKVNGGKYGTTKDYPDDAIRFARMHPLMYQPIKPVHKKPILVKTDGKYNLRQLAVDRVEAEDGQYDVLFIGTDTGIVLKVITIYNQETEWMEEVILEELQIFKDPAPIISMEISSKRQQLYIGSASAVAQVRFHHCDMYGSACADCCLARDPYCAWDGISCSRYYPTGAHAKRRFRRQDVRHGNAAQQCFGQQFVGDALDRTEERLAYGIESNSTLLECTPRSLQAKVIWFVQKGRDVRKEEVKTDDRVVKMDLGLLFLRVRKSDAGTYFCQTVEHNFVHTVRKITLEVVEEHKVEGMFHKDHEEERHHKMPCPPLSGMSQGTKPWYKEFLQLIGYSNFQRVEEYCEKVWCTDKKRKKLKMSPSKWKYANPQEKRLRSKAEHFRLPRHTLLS

shRNA1: small hairpin RNA targeting mouse Sema3E, SEQ ID NO: 26 (CCGGGCTGCTGAAAGTAATCACAATCTCGAGATTGTGATTACTTTCAGCAGCTTTTTG) [reference compound]
Death of 4T1 cells on knockdown of Sema3E (4T1 cells; transfection with shRNA to mouse Sema3E): induced death

z-LEHD-fmk [reference compound]
Effect of caspase inhibitor on the death effect of PlexinD1 [1]: blocked

purified active caspase-3
in vitro cleavage by active caspase-3 (autoradiography) [2]: the intracellular domain of PlexinD1 is cleaved by caspase-3, resulting in five protein products that migrate at apparent molecular weight of 16, 24, 30, 37 and 50 kDa | in vitro cleavage by active caspase-3 (autoradiography) [3]: Mutation of both aspartic acid residues to asparagine (N) within the intracellular domain of PlexinD1 completely suppressed caspase-3 cleavage

z-IETD-fmk [reference compound]
Effect of caspase inhibitor on the death effect of PlexinD1 [1]: not

z-DEVD-fmk [reference compound]
Effect of caspase inhibitor on the death effect of PlexinD1 [1]: blocked

B1: Sema3C: class 3 semaphorin which does not directly bind to PlexinD1; expressed from vector (protein, UniProt Q99985 21-751, looked up)
Semaphorin-3C: GSSQPQARVYLTFDELRETKTSEYFSLSHHPLDYRILLMDEDQDRIYVGSKDHILSLNINNISQEALSVFWPASTIKVEECKMAGKDPTHGCGNFVRVIQTFNRTHLYVCGSGAFSPVCTYLNRGRRSEDQVFMIDSKCESGKGRCSFNPNVNTVSVMINEELFSGMYIDFMGTDAAIFRSLTKRNAVRTDQHNSKWLSEPMFVDAHVIPDGTDPNDAKVYFFFKEKLTDNNRSTKQIHSMIARICPNDTGGLRSLVNKWTTFLKARLVCSVTDEDGPETHFDELEDVFLLETDNPRTTLVYGIFTTSSSVFKGSAVCVYHLSDIQTVFNGPFAHKEGPNHQLISYQGRIPYPRPGTCPGGAFTPNMRTTKEFPDDVVTFIRNHPLMYNSIYPIHKRPLIVRIGTDYKYTKIAVDRVNAADGRYHVLFLGTDRGTVQKVVVLPTNNSVSGELILEELEVFKNHAPITTMKISSKKQQLYVSSNEGVSQVSLHRCHIYGTACADCCLARDPYCAWDGHSCSRFYPTGKRRSRRQDVRHGNPLTQCRGFNLKAYRNAAEIVQYGVKNNTTFLECAPKSPQASIKWLLQKDKDRRKEVKLNERIIATSQGLLIRSVQGSDQGLYHCIATENSFKQTIAKINFKVLDSEMVAVVTDKWSPWTWASSVRALPFHPKDIMGAFSHSEMQMINQYCKDTRQQHQQGDESQKMRGDYGKLKALINSRKSRNRRNQLPES
Effect of co-transfected semaphorin vector on PlexinD1-induced cell death [1]: no change

B2: SD1 (sema domain of mouse PlexinD1, aa 61 to 531, fused in frame with six myc epitope tags) (receptor, UniProt Q3UH93 61-531, looked up, not shown: small tags and cut ends)
chain: TNNFALDGTAGTVYLAAVNRLYQLSSANLSLEAEATVGPVPDSPLCHAPQLPQASCEHPRRLTDNYNKILQLDPGQGLVVACGSIYQGLCQLRRRGNISALAVSFPPAAPTAEPVTVFPSMLNVAANHPNASTVGLVLPPTSGTGGSRLLVGATYTGFGSAFFPRNRSLEDHRFENTPEIAIRSLDARGDLAKLFTFDLNPSDDNILKIKQGAKEQHKLGFVRAFLHPAVPPHSAQPYAYLALNSEARAGDKDSQARSLLARICLPRGAGGDAKKLTESYIQLGLQCAGGAGRGDLYSRLVSVFPAREQFFAVFERPQGAPGARNAPAALCAFRFDDVQAAIRAARTACFVEPAPDVVAVLDSVVQGTGPACESKRNIQLQPEQLDCGAAHLQHPLTILQPLRASPVFRAPGLTAVAVASANNYTAVFLGTATGRLLKISLNESMQVVSRRVLTVAYGEPVHHVMQFDPMD
notes: range 61-531; The construct starts with the Ig k-chain secretion signal peptide, left out here as it is a secretion signal; also called SD1 polypeptide; myc-tagged SD1
IC50 [4]: 5.05 nM

B3: Sema3E: secreted Semaphorin 3E, ligand of PlexinD1; added as exogenous protein or co-transfected vector (protein)
chain: ANPSYPRLRLSHKELLELNRTSIFQSPLGFLDLHTMLLDEYQERLFVGGRDLVYSLNLERVSDGYREIYWPSTAVKVEECIMKGKDANECANYIRVLHHYNRTHLLTCATGAFDPHCAFIRVGHHSEEPLFHLESHRSERGRGRCPFDPNSSFVSTLVGNELFAGLYSDYWGRDSAIFRSMGKLGHIRTEHDDERLLKEPKFVGSYMIPDNEDRDDNKMYFFFTEKALEAENNAHTIYTRVGRLCVNDMGGQRILVNKWSTFLKARLVCSVPGMNGIDTYFDELEDVFLLPTRDPKNPVIFGLFNTTSNIFRGHAVCVYHMSSIREAFNGPYAHKEGPEYHWSLYEGKVPYPRPGSCASKVNGGKYGTTKDYPDDAIRFARMHPLMYQPIKPVHKKPILVKTDGKYNLRQLAVDRVEAEDGQYDVLFIGTDTGIVLKVITIYNQETEWMEEVILEELQIFKDPAPIISMEISSKRQQLYIGSASAVAQVRFHHCDMYGSACADCCLARDPYCAWDGISCSRYYPTGAHAKRRFRRQDVRHGNAAQQCFGQQFVGDALDRTEERLAYGIESNSTLLECTPRSLQAKVIWFVQKGRDVRKEEVKTDDRVVKMDLGLLFLRVRKSDAGTYFCQTVEHNFVHTVRKITLEVVEEHKVEGMFHKDHEEERHHKMPCPPLSGMSQGTKPWYKEFLQLIGYSNFQRVEEYCEKVWCTDKKRKKLKMSPSKWKYANPQEKRLRSKAEHFRLPRHTLLS
Effect of exogenous Sema3E on SD1-induced death (4T1 cells; exogenous Sema3E 100 ng/ml): sufficient to rescue cells from death | Effect of exogenous Sema3E on death induced by Sema3E knockdown (4T1 cells; exogenous Sema3E 100 ng/ml, shRNA1): reversed | Effect of exogenous ligand on PlexinD1-triggered cell death ([1]; Sema3E 10 to 100 ng/ml): inhibited in a dose dependent manner | Effect of co-transfected semaphorin vector on PlexinD1-induced cell death [1]: saved from cell death
